From patent US20190177366A1 (published 2019)
Bridge positions count the residues as written; N and C are the ends.

B1: Compound 71 (peptide)
peptide: Ac-CRLPWNLQRAGLPC-NH2
modifications: disulfide 1-14
SMILES: CC(=O)N[C@H]1CSSC[C@@H](C(N)=O)NC(=O)[C@@H]2CCCN2C(=O)[C@H](CC(C)C)NC(=O)CNC(=O)[C@H](C)NC(=O)[C@H](CCCNC(=N)N)NC(=O)[C@H](CCC(N)=O)NC(=O)[C@H](CC(C)C)NC(=O)[C@H](CC(N)=O)NC(=O)[C@H](Cc2c[nH]c3ccccc23)NC(=O)[C@@H]2CCCN2C(=O)[C@H](CC(C)C)NC(=O)[C@H](CCCNC(=N)N)NC1=O
B2: Compound 75 (peptide)
peptide: Ac-CRLPWALQRIGLPC-NH2
modifications: disulfide 1-14
SMILES: CC[C@H](C)[C@@H]1NC(=O)[C@H](CCCNC(=N)N)NC(=O)[C@H](CCC(N)=O)NC(=O)[C@H](CC(C)C)NC(=O)[C@H](C)NC(=O)[C@H](Cc2c[nH]c3ccccc23)NC(=O)[C@@H]2CCCN2C(=O)[C@H](CC(C)C)NC(=O)[C@H](CCCNC(=N)N)NC(=O)[C@@H](NC(C)=O)CSSC[C@@H](C(N)=O)NC(=O)[C@@H]2CCCN2C(=O)[C@H](CC(C)C)NC(=O)CNC1=O
B3: Compound 73 (peptide)
peptide: Ac-CRLPWNLARIGLPC-NH2
modifications: disulfide 1-14
SMILES: CC[C@H](C)[C@@H]1NC(=O)[C@H](CCCNC(=N)N)NC(=O)[C@H](C)NC(=O)[C@H](CC(C)C)NC(=O)[C@H](CC(N)=O)NC(=O)[C@H](Cc2c[nH]c3ccccc23)NC(=O)[C@@H]2CCCN2C(=O)[C@H](CC(C)C)NC(=O)[C@H](CCCNC(=N)N)NC(=O)[C@@H](NC(C)=O)CSSC[C@@H](C(N)=O)NC(=O)[C@@H]2CCCN2C(=O)[C@H](CC(C)C)NC(=O)CNC1=O
B4: Compound 76 (peptide)
peptide: Ac-CRLPANLQRIGLPC-NH2
modifications: disulfide 1-14
SMILES: CC[C@H](C)[C@@H]1NC(=O)[C@H](CCCNC(=N)N)NC(=O)[C@H](CCC(N)=O)NC(=O)[C@H](CC(C)C)NC(=O)[C@H](CC(N)=O)NC(=O)[C@H](C)NC(=O)[C@@H]2CCCN2C(=O)[C@H](CC(C)C)NC(=O)[C@H](CCCNC(=N)N)NC(=O)[C@@H](NC(C)=O)CSSC[C@@H](C(N)=O)NC(=O)[C@@H]2CCCN2C(=O)[C@H](CC(C)C)NC(=O)CNC1=O
B5: Compound 77 (peptide)
peptide: Ac-CRLAWNLQRIGLPC-NH2
modifications: disulfide 1-14
SMILES: CC[C@H](C)[C@@H]1NC(=O)[C@H](CCCNC(=N)N)NC(=O)[C@H](CCC(N)=O)NC(=O)[C@H](CC(C)C)NC(=O)[C@H](CC(N)=O)NC(=O)[C@H](Cc2c[nH]c3ccccc23)NC(=O)[C@H](C)NC(=O)[C@H](CC(C)C)NC(=O)[C@H](CCCNC(=N)N)NC(=O)[C@@H](NC(C)=O)CSSC[C@@H](C(N)=O)NC(=O)[C@@H]2CCCN2C(=O)[C@H](CC(C)C)NC(=O)CNC1=O
B6: Compound 74 (peptide)
peptide: Ac-CRLPWNAQRIGLPC-NH2
modifications: disulfide 1-14
SMILES: CC[C@H](C)[C@@H]1NC(=O)[C@H](CCCNC(=N)N)NC(=O)[C@H](CCC(N)=O)NC(=O)[C@H](C)NC(=O)[C@H](CC(N)=O)NC(=O)[C@H](Cc2c[nH]c3ccccc23)NC(=O)[C@@H]2CCCN2C(=O)[C@H](CC(C)C)NC(=O)[C@H](CCCNC(=N)N)NC(=O)[C@@H](NC(C)=O)CSSC[C@@H](C(N)=O)NC(=O)[C@@H]2CCCN2C(=O)[C@H](CC(C)C)NC(=O)CNC1=O
B7: Compound 72 (peptide)
peptide: Ac-CRLPWNLQAIGLPC-NH2
modifications: disulfide 1-14
SMILES: CC[C@H](C)[C@@H]1NC(=O)[C@H](C)NC(=O)[C@H](CCC(N)=O)NC(=O)[C@H](CC(C)C)NC(=O)[C@H](CC(N)=O)NC(=O)[C@H](Cc2c[nH]c3ccccc23)NC(=O)[C@@H]2CCCN2C(=O)[C@H](CC(C)C)NC(=O)[C@H](CCCNC(=N)N)NC(=O)[C@@H](NC(C)=O)CSSC[C@@H](C(N)=O)NC(=O)[C@@H]2CCCN2C(=O)[C@H](CC(C)C)NC(=O)CNC1=O

The binders below were run against T1, His-tagged, full-length PCSK9 (human, UniProt A8T644 31-152; Q8NBP7 153-692) (assay: TR-FRET competition; competitor EGF(A)-Fc on His-PCSK9).
T1 construct: Target protein of the PCSK9/EGF(A) TR-FRET assay (10 nM); also called His-PCSK9; proprotein convertase subtilisin/kexin type 9
T1 sequence (A8T644 31-152 limits assumed, chain 1 of 2): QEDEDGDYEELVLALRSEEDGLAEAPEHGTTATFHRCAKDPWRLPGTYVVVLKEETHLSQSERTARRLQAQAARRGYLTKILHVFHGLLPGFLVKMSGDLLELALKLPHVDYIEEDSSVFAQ
T1 sequence (A8T644 other isoform, or with tags, fused parts or gaps limits assumed, chain 2 of 2): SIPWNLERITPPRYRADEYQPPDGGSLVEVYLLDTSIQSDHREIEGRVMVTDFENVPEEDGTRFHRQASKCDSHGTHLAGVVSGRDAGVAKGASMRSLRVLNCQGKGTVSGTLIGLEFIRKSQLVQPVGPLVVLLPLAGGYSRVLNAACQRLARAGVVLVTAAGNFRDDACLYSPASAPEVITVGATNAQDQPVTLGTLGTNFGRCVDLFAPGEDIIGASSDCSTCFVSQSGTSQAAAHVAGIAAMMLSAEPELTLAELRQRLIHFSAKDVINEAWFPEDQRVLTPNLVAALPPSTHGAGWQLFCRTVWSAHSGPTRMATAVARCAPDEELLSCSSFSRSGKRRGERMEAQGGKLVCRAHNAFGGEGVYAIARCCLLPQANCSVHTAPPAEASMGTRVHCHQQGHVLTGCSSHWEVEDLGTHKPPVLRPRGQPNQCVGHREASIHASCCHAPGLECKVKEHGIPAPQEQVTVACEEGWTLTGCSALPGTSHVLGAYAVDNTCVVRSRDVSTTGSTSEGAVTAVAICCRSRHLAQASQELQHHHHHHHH

| IC50 [µM] | Binder |
| --- | --- |
| > 50 | B1 |
| > 50 | B2 |
| > 50 | B3 |
| > 50 | B4 |
| > 50 | B5 |
| > 50 | B6 |
| > 50 | B7 |
